Results reported in article PMC9559756.

Legend:
[1] = molecular target: untagged-cpAQP1aa-243 (C-terminally truncated aquaporin 1aa from Anabas testudineus, climbing perch) (Anabas testudineus (climbing perch)); experiment: crystal structure; untagged-cpAQP1aa-243, hanging-drop vapor diffusion, 4°C; reservoir 100 mM Tris-HCl pH 7.8, 5% γ-PGA, 30% PEG400, D-sorbitol additive; space group P42_(1)2, one monomer in the asymmetric unit; 1.9 Å
[2] = molecular target: untagged-cpAQP1aa-243 (C-terminally truncated aquaporin 1aa from Anabas testudineus, climbing perch) (Anabas testudineus (climbing perch)); experiment: crystal structure; untagged-cpAQP1aa-243, hanging-drop vapor diffusion, 4°C; reservoir 300 mM lithium sulfate, 100 mM ADA pH 6.5, 30% PEG400, dextran sulfate additive; space group C222_(1), four monomers in the asymmetric unit; 3.5 Å

stoichiometry N [1]: 4
stoichiometry N [2]: 4
Substance: untagged-cpAQP1aa-243 (C-terminally truncated aquaporin 1aa from Anabas testudineus, climbing perch) (domain or fragment)
